{"source": "patent US20210063414A1", "about": "“METHODS FOR PREVENTING AND/OR TREATING BONE LOSS CONDITIONS BY MODULATING IRISIN” (Dana-Farber Cancer Institute, Inc., priority 2018, published 2021)", "key": {"[1]": {"target": "T1, CD81 antigen (Cd81) of MLO-Y4 cells (mouse) (UniProt P35762)", "T1 sequence (looked up)": "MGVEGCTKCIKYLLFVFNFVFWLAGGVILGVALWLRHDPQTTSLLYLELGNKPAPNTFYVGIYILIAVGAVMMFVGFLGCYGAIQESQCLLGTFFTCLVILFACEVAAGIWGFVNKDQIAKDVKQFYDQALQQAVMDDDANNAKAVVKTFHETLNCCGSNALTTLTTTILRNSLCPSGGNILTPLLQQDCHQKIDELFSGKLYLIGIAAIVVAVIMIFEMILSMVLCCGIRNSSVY", "experiment": "DTSSP cross-linking on MLO-Y4 cells, his-tag pull-down, TMT mass spectrometry; adipsin (control) channel"}, "[2]": {"target": "Fibronectin type III domain-containing protein 3B (Fndc3b) of MLO-Y4 cells (mouse) (UniProt Q6NWW9)", "sequence (Q6NWW9 whole entry, the tested form may be a part)": "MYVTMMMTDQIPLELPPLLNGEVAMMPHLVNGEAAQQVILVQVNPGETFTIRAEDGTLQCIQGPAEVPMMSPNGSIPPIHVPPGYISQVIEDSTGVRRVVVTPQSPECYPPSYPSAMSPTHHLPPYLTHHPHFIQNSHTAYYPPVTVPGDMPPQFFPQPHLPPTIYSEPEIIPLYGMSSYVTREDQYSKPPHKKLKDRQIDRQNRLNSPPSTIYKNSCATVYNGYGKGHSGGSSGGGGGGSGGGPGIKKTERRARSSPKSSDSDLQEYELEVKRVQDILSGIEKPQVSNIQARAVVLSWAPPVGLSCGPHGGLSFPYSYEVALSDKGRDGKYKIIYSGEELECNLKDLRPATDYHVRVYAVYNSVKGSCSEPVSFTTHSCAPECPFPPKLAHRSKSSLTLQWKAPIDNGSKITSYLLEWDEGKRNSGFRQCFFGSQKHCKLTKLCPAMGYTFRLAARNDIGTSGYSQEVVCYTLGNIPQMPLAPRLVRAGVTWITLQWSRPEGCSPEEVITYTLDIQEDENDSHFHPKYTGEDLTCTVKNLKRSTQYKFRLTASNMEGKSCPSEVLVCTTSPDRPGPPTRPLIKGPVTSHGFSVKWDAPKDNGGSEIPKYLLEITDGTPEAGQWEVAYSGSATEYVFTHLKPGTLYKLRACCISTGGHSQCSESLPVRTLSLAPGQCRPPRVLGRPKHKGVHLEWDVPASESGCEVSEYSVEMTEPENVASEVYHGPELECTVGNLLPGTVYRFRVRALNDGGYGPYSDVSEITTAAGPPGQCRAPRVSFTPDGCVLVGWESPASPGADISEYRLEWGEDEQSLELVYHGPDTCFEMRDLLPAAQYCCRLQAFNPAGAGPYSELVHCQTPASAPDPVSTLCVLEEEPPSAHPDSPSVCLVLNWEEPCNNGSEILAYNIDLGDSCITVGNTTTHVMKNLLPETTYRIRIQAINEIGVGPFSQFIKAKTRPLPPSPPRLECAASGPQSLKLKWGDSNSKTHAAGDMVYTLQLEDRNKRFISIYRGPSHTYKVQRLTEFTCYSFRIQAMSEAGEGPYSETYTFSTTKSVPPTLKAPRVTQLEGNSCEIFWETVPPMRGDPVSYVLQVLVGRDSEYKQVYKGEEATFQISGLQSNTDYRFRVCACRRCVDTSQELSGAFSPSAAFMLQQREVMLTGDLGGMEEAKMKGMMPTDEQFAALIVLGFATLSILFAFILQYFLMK", "experiment": "DTSSP cross-linking on MLO-Y4 cells, his-tag pull-down, TMT mass spectrometry; adipsin (control) channel"}, "[3]": {"target": "T2, Integrin alpha-V (Itgav) of MLO-Y4 cells (mouse) (UniProt P43406)", "T2 sequence (looked up)": "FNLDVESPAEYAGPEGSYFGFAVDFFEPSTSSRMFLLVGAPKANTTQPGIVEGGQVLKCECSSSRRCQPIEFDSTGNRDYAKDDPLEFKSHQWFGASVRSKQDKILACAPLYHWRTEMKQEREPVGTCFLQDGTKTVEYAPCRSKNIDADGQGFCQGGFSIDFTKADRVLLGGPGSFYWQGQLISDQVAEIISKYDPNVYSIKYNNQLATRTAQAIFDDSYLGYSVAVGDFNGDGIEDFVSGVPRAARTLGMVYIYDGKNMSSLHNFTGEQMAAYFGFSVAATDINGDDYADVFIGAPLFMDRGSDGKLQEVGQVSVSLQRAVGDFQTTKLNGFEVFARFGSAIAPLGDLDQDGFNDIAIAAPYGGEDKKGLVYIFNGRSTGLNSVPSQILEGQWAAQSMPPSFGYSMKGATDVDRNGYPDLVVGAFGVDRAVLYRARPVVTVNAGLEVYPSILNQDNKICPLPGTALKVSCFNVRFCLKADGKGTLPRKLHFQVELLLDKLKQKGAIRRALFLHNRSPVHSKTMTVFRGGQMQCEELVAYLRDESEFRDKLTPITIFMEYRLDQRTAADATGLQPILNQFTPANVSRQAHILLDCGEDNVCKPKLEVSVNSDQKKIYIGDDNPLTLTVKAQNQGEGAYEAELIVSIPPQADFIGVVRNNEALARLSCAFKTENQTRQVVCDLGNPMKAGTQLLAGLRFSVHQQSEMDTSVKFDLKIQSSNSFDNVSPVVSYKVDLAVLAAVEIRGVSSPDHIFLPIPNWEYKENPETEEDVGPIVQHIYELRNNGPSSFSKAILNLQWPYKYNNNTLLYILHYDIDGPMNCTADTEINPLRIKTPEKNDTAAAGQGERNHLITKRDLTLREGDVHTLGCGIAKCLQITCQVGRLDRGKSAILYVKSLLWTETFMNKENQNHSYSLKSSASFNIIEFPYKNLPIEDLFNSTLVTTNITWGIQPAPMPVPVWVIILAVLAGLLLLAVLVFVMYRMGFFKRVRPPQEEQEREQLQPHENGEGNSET", "experiment": "DTSSP cross-linking on MLO-Y4 cells, his-tag pull-down, TMT mass spectrometry; adipsin (control) channel"}, "[4]": {"target": "Integrin beta-1 (Itgb1) of MLO-Y4 cells (mouse) (UniProt P09055)", "sequence (P09055 21-798)": "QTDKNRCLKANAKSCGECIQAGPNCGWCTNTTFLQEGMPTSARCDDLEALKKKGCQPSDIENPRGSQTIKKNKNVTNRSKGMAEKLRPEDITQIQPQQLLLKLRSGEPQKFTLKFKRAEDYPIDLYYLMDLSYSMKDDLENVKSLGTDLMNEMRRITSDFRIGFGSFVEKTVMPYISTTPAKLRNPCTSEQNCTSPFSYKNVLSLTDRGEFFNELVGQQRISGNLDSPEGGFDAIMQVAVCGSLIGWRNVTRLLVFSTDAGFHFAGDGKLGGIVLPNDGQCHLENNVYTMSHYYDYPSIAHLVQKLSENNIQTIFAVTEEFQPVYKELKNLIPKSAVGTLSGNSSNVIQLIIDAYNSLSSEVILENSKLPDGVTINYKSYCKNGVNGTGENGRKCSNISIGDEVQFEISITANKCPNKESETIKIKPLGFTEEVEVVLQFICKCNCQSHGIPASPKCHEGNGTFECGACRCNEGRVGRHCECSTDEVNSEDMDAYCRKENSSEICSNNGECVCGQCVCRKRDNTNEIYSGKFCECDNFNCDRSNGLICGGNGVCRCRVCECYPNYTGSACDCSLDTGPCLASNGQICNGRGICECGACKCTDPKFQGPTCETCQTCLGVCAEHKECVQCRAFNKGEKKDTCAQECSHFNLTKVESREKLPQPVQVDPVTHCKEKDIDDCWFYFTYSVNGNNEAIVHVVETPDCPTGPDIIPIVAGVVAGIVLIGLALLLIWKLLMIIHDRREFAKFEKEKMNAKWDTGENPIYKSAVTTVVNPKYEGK", "experiment": "DTSSP cross-linking on MLO-Y4 cells, his-tag pull-down, TMT mass spectrometry; adipsin (control) channel"}, "[5]": {"target": "T3, Integrin beta-5 (Itgb5) of MLO-Y4 cells (mouse) (UniProt O70309)", "T3 sequence (looked up)": "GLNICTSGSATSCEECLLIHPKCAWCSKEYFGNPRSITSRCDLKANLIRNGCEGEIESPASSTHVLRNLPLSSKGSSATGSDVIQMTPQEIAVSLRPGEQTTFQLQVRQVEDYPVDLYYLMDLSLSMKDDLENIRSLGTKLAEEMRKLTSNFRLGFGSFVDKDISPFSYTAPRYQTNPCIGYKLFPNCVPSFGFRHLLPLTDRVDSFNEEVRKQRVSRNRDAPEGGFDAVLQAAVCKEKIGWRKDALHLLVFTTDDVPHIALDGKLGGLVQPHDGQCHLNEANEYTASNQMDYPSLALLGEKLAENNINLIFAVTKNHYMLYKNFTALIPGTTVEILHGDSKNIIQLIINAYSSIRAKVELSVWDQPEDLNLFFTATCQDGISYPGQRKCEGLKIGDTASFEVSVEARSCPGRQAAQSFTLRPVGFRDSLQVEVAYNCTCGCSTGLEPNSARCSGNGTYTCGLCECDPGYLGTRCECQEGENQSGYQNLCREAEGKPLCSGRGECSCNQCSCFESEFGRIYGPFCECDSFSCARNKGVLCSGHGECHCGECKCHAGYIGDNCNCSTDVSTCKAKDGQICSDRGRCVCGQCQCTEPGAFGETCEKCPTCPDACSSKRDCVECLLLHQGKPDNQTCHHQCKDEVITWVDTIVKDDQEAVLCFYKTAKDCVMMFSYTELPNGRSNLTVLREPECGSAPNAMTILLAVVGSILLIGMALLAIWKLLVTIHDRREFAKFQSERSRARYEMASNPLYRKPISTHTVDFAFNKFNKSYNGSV", "experiment": "DTSSP cross-linking on MLO-Y4 cells, his-tag pull-down, TMT mass spectrometry; adipsin (control) channel"}, "[6]": {"target": "T4, Membrane magnesium transporter 1 (Mmgt1) of MLO-Y4 cells (mouse) (UniProt Q8K273)", "T4 sequence (looked up)": "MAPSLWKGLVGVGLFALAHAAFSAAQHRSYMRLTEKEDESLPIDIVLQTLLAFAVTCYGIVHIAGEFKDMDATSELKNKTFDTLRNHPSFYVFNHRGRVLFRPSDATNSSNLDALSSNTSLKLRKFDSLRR", "experiment": "DTSSP cross-linking on MLO-Y4 cells, his-tag pull-down, TMT mass spectrometry; adipsin (control) channel"}, "[7]": {"target": "Protocadherin alpha-4 (Pcdha4) of MLO-Y4 cells (mouse) (UniProt O88689)", "sequence (O88689 other isoform, or with tags, fused parts or gaps)": "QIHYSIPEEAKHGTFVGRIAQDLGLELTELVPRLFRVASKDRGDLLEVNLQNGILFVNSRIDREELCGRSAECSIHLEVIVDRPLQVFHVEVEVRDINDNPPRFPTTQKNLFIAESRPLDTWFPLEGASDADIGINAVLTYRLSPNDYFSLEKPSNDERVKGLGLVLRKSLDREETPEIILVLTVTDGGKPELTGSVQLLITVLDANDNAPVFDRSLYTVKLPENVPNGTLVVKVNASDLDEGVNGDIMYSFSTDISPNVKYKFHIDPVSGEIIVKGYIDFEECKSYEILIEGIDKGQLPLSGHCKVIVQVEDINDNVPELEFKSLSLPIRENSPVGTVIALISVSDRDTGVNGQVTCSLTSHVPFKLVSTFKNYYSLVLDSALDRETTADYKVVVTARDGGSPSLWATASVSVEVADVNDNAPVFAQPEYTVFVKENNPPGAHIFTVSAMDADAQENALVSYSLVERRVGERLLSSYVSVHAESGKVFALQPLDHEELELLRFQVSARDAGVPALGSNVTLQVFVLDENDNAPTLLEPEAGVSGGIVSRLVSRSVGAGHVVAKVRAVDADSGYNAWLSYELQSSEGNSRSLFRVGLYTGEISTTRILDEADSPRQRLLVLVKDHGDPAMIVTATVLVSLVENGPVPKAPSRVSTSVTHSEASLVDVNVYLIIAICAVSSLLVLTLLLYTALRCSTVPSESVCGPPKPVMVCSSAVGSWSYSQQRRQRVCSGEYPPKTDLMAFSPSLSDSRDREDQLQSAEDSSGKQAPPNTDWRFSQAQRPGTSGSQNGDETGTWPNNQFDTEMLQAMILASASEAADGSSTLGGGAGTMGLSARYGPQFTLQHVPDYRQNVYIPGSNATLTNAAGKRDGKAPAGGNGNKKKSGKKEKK", "experiment": "DTSSP cross-linking on MLO-Y4 cells, his-tag pull-down, TMT mass spectrometry; adipsin (control) channel"}, "[8]": {"target": "T1, CD81 antigen (Cd81) of MLO-Y4 cells (mouse)", "experiment": "DTSSP cross-linking on MLO-Y4 cells, his-tag pull-down, TMT mass spectrometry; irisin channel"}, "[9]": {"target": "Fibronectin type III domain-containing protein 3B (Fndc3b) of MLO-Y4 cells (mouse) (UniProt Q6NWW9)", "experiment": "DTSSP cross-linking on MLO-Y4 cells, his-tag pull-down, TMT mass spectrometry; irisin channel"}, "[10]": {"target": "Membrane magnesium transporter 1 (Mmgt1) of MLO-Y4 cells (mouse) (UniProt Q8K273)", "experiment": "DTSSP cross-linking on MLO-Y4 cells, his-tag pull-down, TMT mass spectrometry; irisin channel"}, "[11]": {"target": "Protocadherin alpha-4 (Pcdha4) of MLO-Y4 cells (mouse) (UniProt O88689)", "experiment": "DTSSP cross-linking on MLO-Y4 cells, his-tag pull-down, TMT mass spectrometry; irisin channel"}, "[12]": {"target": "T1, CD81 antigen (Cd81) of MLO-Y4 cells (mouse)", "experiment": "DTSSP cross-linking of his-tag ligand on MLO-Y4 cells, his-tag pull-down, TMT quantitative mass spectrometry; ratio to his-tag adipsin control"}, "[13]": {"target": "Fibronectin type III domain-containing protein 3B (Fndc3b) of MLO-Y4 cells (mouse) (UniProt Q6NWW9)", "experiment": "DTSSP cross-linking of his-tag ligand on MLO-Y4 cells, his-tag pull-down, TMT quantitative mass spectrometry; ratio to his-tag adipsin control"}, "[14]": {"target": "Membrane magnesium transporter 1 (Mmgt1) of MLO-Y4 cells (mouse) (UniProt Q8K273)", "experiment": "DTSSP cross-linking of his-tag ligand on MLO-Y4 cells, his-tag pull-down, TMT quantitative mass spectrometry; ratio to his-tag adipsin control"}, "[15]": {"target": "Protocadherin alpha-4 (Pcdha4) of MLO-Y4 cells (mouse) (UniProt O88689)", "experiment": "DTSSP cross-linking of his-tag ligand on MLO-Y4 cells, his-tag pull-down, TMT quantitative mass spectrometry; ratio to his-tag adipsin control"}}, "data": [{"substance": "His-tag adipsin (R&D Systems, Cat. # AF1824-SP)", "values": [{"measurement": "summed signal-to-noise value for TMT channel", "setting": "[1]", "result": 105}, {"measurement": "summed signal-to-noise value for TMT channel", "setting": "[2]", "result": 449}, {"measurement": "summed signal-to-noise value for TMT channel", "setting": "[3]", "result": 54.4}, {"measurement": "summed signal-to-noise value for TMT channel", "setting": "[4]", "result": 250}, {"measurement": "summed signal-to-noise value for TMT channel", "setting": "[5]", "result": 148}, {"measurement": "summed signal-to-noise value for TMT channel", "setting": "[6]", "result": 17.4}, {"measurement": "summed signal-to-noise value for TMT channel", "setting": "[7]", "result": 17.1}]}, {"substance": "His-tag recombinant irisin (irisin (human/mouse) with a C-terminal 10 his tag, produced in HEK293 cells) (from UniProt Q8K3V5 60-171) (ligand)", "values": [{"measurement": "summed signal-to-noise value for TMT channel", "setting": "[8]", "result": 427}, {"measurement": "summed signal-to-noise value for TMT channel", "setting": "[9]", "result": 1290}, {"measurement": "summed signal-to-noise value for TMT channel", "setting": "[10]", "result": 51.2}, {"measurement": "summed signal-to-noise value for TMT channel", "setting": "[11]", "result": 75.2}, {"measurement": "irsin/adipsin (TMT ratio)", "setting": "[12]", "result": 4.05}, {"measurement": "irsin/adipsin (TMT ratio)", "setting": "[13]", "result": 2.88}, {"measurement": "irsin/adipsin (TMT ratio)", "setting": "[14]", "result": 2.94}, {"measurement": "irsin/adipsin (TMT ratio)", "setting": "[15]", "result": 4.39}]}]}
